Reference: a protein production outcome set (Wang et al. 2014)

Experiment: label from the status in PepcDB records
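Further: failed if final PepcDB status was selected cloned or expressed and not failed if soluble or beyond.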

Sequence | protein production
MAKKKNVSVISVEKPTWFPLTDETGAFPVYGAPITIGTAVSIKPDVTTETTPDYGDSVVQDQYVAFGGAEVTLETNGYQNEVLAEITGGKKLKGGVLRSADDIASDGAFAYRRRKSNGKYRYTIFYKGKFALTSDETSTLEGSSVSYTHPEWTGSFVDVPGLGYMYSVDEDDEGVDLEMIKNWFTEVMDPRKENTTAVTGVTLDQTELNLKVGQTATLTPTITPDNASNKKYQFRSESEAIGTVTPIQGKVTAVGEGTTEIVVTTEDGNFTAKCTLNVTTADLEHHHHHH | failed
MEELKTKGEHGNEEAKKAPATGETETVEKNVAIRRTSTASSEQDLDTFLLGDLEDSDEAPDDGDGSLEDDFDKIGNSDVEDEKQSSKATTNAGNEVSC | failed
MVLSVVVVGKPRCRSIAVAARERLHRYGEYPMSSNNASGKVVSVDEQAFENAGEQAADEDGFPVVDETPEFEAAVEQETQAKVDANHPDGIADTSEDRIHGVTLEQEERIRAREAELERISAQAELGTQDGREQRTRDIAAKRSAVRRAEFQTRAASVDPMADPERDDPRAELTQEQLAAVNKQSMRLAEKLDGWSRAAIGRRLGEAVVGGKDVTSAVVGVFEELQTAPGTVIPIGKLEDVNRKEVSIEGTVTRLWKPSSAAISQVGLIEDESGKTKFTSWVASEQPWIEEGEHVRIHGAAKNWYNGRVSVALTGWSTVHFPERGRWWEALEHHHHHH | failed
APSQGATANAETQTTIPLGDTSQNALDWPGVYEGVLPCASCEGIQTTLTLQADNSFELKSIYLGKDESIFKVAGKFDWDSNGSKITLSDGSKYLVGENQLLMLDTEGNRITGGLAEHYILKKKGM | not failed
MAAPEAEVLSSAAVPDLEWYEKSEETHASQIELLETSSTQEPLNASEAFCPRDCMVPVVFPGPVSQEGCCQFTCELLKHIMYQRQQLPLPYEQLKHFYRKPSPQAEEMLKKKPRATTEVSSRKCQQALAELESVLSHLEDFFARTLVPRVLILLGGNALSPKEFYELDLSLLAPYSVDQSLSTAACLRRLFRAIFMADAFSELQAPPLMGTVVMAQGHRNCGEDWFRPKLNYRVPSRGHKLTVTLSCGRPSIRTTAWEDYIWFQAPVTFKGFRE | not failed
IRSIWENNGFGLMSSKTMTDFDYWISDFEKIGASQKEAEQLIVKAIEIAIDANARNYNYINAILKDWEQRGFKSVEEREAARKQKKTTKKQKSNTGHSDYDDLGF | not failed
MPKQTGNARNPFVLLALFILVCSGGCATYPISHDKAVPVARGALFEYPYFHDQVTGIAVSGQGRIFVNFPRWDKDPLYSVAEVLPDGSLRPYPDHGWNRWGADETAHPEAHFICVQSVFVDHSDFLWILDPASPAFNGVVPGGAKLVKVNLKTDQVERVIPFAPSAAPHESYLNDVRIDPEGNFAFITDSGKGAIVVVDLESGKARRLLSGHPSTKAEPGYVPVIEGKELRNEDGTVPKIHADGIALDSRGEYLYYHALVGRTLYRIRTSFLKDPSLPEKDLENHVERIAETGAADGMLMDAQDNLYLTALEENAVKRYRPSEPTLNTIIQGGLHWPDSLAISPDNYLYVTDSQINLAPRFNHGKDLRIIPYKFFKTWLMPFSHDGLLPP | failed
MRICLFLCLCLCMASPALAQVAVFPALSGKTDAQTLVVYSSLDEPLATPMIEGFQKANPDIAVHYEDMLTGEIYDRIVKETDAGKKTADFAFSSAMDLQVKLSNDGYAQRSDLAMSARWPAWANWRNTAYALTFEPAVFVYHKPSFTTEKPPATRAEFVDYLERHAKEVHGRIATYDIERSGVGFLFMSRDQEQFGDIWSVIKAMGAAGVKVYSTSSAILERVSDGRFVLGYNILGSYAADWASRHPDVGIVLPKDYTVVMSRIGLVPEAAANPELGRRYLEFFMSKEGQTIMARQLQIPAVSPEVAGENTANTMQAIHGAQLRPVPVSPGLMVYLDQVKRSR | not failed
MASKPEKRVASSVFITLAPPRRDVAVSEEVGQAACEARRARPWEMLPTKTPGAAVGRSPKTWTPSGKTNASLSGVTPQLSNGGCSLPPPSLNEEDLDLPPPPPPPSAYLPLPEEEPPVLPGKSLISDLEQLHLPPPPPPPPPQAPSKGSSVHPPPGHAIPSEEELPPPPEEPVTLPEREVSTDVCGFCHKPVSPRELAVEAMKRQYHAQCFTCRTCRRQLAGQRFYQKDGRPLCEPCYQDTLEKCGKCGEVVQEHVIRALGKAFHPPCFTCVTCARCISDESFALDSQNQVYCVADFYRKFAPVCSICENPIIPRDGKDAFKIECMGRNFHENCYRCEDCSVLLSVEPTDQGCYPLNDHLFCKPCHLKRSAAGCC | failed
MNIVKLMVIIIYLIIGSALGIIIIPEIANDLGLQNSSFLKNHYVDGIIGSIFMFLIFGVFIRRVTNAIKGLEHFIMRRSAVEILFATIGLIIGLLISVMVSFILESIGNSIFNHFIPVIITILLCYFGFQFGLKKRDEMLMFLPENIARSMSQHTKSATPKIIDTSAIIDGRILEVIRCGFIDGNILIPQGVINELQIVADSNDSVKREKGKRGLDILNELYDLDYPTKVIHPTKTHSDIDTMLLKLAKQYHASIITTDFNLNKVCHVHGIKALNVNDLSEAIKPNVHQGDQLHILLTKMGKEPGQAVGYLDDGTMVVVDNAKNLIGSHVNLEVVSLLQTSSGRIVFAKKIEDTVSLLEHHHHHH | failed
MRRVFGAKKNTEPPPSIQDASDRINKRGDSVEDKIKKLDVELCKYKEQLKKTRPGPAQEAVKARAMRVLKQKKMYEGQRDMLYNQTFNLDQVSFAAEGLKDAQQTMTALKSANKELKGMMKTVKIQDIDNLQDEMMDLMDVSSEIQESLGRSYNIPDGLDEDDLMGELDALEADMGNETEADGMPSYLQPDTETDYDSELNLPAAPTGHNGAPHGRAQVNF | failed
DPSVFSLPDSKLPGDKEFVPWQQDLDDSVKPTQQARPTVIRWSEGGKEVFISGSFNNWSTKIPLIKSHNDFVAILDLPEGEHQYKFFVDGQWVHDPSEPVVTSQLGTINNLIHVKKSDFEVFDALKLDSMESSETSCRV | failed
KHLSLTPELYKYLLDISLREHPALAALRKETSTMELANMQVAPEQAQFMQMLIRLTRAKKVLELGTFTGYSALAMSLALPDDGQVITCDINEGWTKHAHPYWREAKQEHKIKLRLGPALDTLHSLLNEGGEHQFDFIFIDADKTNYLNYYELALKLVTPKGLIAIDNIFWDGKVIDPNDTSGQTREIKKLNQVIKNDSRVFVSLLAIADGMFLVQPI | not failed
MINAISPFQVQNTQNTQNATNQVNNSQKTDSSNQTSFSELLKNSISSLNESQVASDNMTNALAAGKDVNLDEVMIAAQKASISLTAATEFRNKAVEAYQEIMRMQM | not failed
MNHRLAGIISPLGHITTDPIRSSSVNPSSPVYYKTIVNHFKSQTGNHVSPGLTNQEISAVESSHGFSFPLDLRSILQTGLPVGTNFPNWRTGSNRNNLLLPLLNLSQHVVRNGFWVDSWGIRPGNDAEALSLVKKLIEIAPVLVPVYGDFYVPSTTPNLAGNPVFQIDGDGVRELSCDVVGFLKGIGRSETPTEDRRRRRRPRRVEFWSDVAEGWRFVVARDYTRDWWSALGFEGLTACLDDAFWKLREAGWTEDDVRDMMMMDSVDQNTCIQQQTQTQSRDVVYAFGDEGMNERDRDTCTEDEDHQKGEVTTLRHLLLYDRLMS | failed
MQYVMSIIGILVVLGLCFALSNNKSKINFRAIAIMIGFQILIGWFMFGTKIGQQIIIFIGKVFNKLIKLGTTGVDFLFNGIQRDFVFFLNVLLIIVFFSALLSIFSYLGVLPFIVRVVGGAISKITGLPRVESFHAVNSVFFGSSEALIVIKNDLQHFNKNRMFIICCSAMSSVSASVTASYVMMLDAKYVLAALPLNLFSSLIVCSLLTPVDTKKEDEVIQKFDRTLFGDSFIGAMINGALDGLKVAGIVAALMIAFIGVMEVVNYVISAASGAMGHAVTLQQIFGYVLAPFAFLMGIPAQDIIPAGGIMGTKIVLNEFVAILDLKGVAATLSPRTVGIVTVFLISFASISQIGAIVGTIRALSEKQGSVVSKFGWKMLFASTLASILSATIAGLFI | failed
EPNRLIKEKSPYLLQHAYNPVDWYPWGEEAFEKARKENKPVFLSIGYSTCHWCHMMAHESFEDEEVAGLMNEAFVSIKVDREERPDIDNIYMTVCQIILGRGGWPLNIIMTPGKKPFFAGTYIPKNTRFNQIGMLELVPRIKEIWEQQHEEVLDSAEKITSTIQEMIKESSG | not failed
MATFFSLALYAGSFTFILREGGIPFYYLGVFFAIAVILYLIFNSLSREYVGRAGDAIIVPVSILMVAVAFVLVYISQSIPIISVSVALFTVSLIMFYNSTVRNEVSISTNERIFMGGAGLGGFIGLIVAGVFPGKMSVLDSYMAIIMLAVGLAAVFVFFRRPTGRFSIADAFHVFVRPFNSMEKIRTIEKKLLLLAVSLDEIFVWIAIGASFPFVISAGLGSGMSRPAVMFSVAAAIIIGAALVYVFESSNIPATPFFYPVKDLILVAGLLLLSFMYPASYVAGMIFLALLPVAFIGSVRFLKSQFPSSFDFRQITSFFRNPIMVIAPLMGSILWAVSGAMLFLTAMAFAIFALVIGIIVITNPKIFKVSDPYETANN | failed
MNCAISGEVPVEPVVSTKSGLLFERRLIERHISDYGKCPVTGEPLTIDDIVPIKTGEIIKPKTLHTASIPGLLGTFQNEWDGLMLSNFALEQQLHTARQELSHALYQHDSACRVIARLKKERDEARQLLAEVERHIPAAPEAVTANAALSNGKRAAVDEELGPDAKKLCPGISAEIITELTDCNAALSQKRKKRQIPQTLASIDTLERFTQLSSHPLHKTNKPGICSMDILHSKDVIATGGVDATAVLFDRPSGQILSTLTGHSKKVTSVKFVGDSDLVLTASADKTVRIWRNPGDGNYACGYTLNDHSAEVRAVTVHPTNKYFVSASLDGTWCFYDLSSGSCLAQVSDDSKNVDYTAAAFHPDGLILGTGTSQSVVKIWDVKSQANVAKFDGHTGEVTAISFSENGYFLATAAEDGVRLWDLRKLRNFKSFLSADANSVEFDPSGSYLGIAASDIKVYQTASVKAEWNLIKTLPDLSGTGKATCVKFGSDAQYVAVGSMDRNYGYLVFLVMKKPTSMMTLRKTREQSVKNSDRTFQMSISSVISLKFLKFCCILQYLQQWGRIS | failed
MMRHERLRFWLAGLAAAATGWLCYAGLARLAGALGVATWIPYPALRRQWLLIGESWQSAEFSGAIADASVFLTALAAVAAYYCARIVYHLSFAPVRQRRARWLIAGWIVGTVAMVALSQSLGWLYGAFPGFARIGWLSAALGFAVLAGAASGFARAWGRLMRARKVPATE | failed
MYKILIVEDDPNISSLLQSHIQKYGYEAVVAENFDDIMESFNAVKPHLVLLDVNLPKFDGFYWCRQIRHESTCPIIFISARAGEMEQIMAIESGADDYITKPFHYDVVMAKIKGQLRRIYGDYAPNISERIVEVEGLKLFPERPEIHFGSEQVLLTKKEAILAEMLLSKFPRTASREDLLAALWDDESFVEENTLNVNITRLRKKFNELGIENAIETVRGLGYRFNATWSE | failed
MDYLVKALAYDGKVRAYAARTTDMVNEGQRRHGTWPTASAALGRTMTASLMLGAMLKGDDKLTVKIEGGGPIGAIVADANAKGEVRAYVSNPQVHFDLNEQGKLDVRRAVGTNGTLSVVKDLGLREFFTGQVEIVSGELGDDFTYYLVSSEQVPSSVGVGVLVNPDNTILAAGGFIIQLMPGTDDETITKIEQRLSQVEPISKLIQKGLTPEEILEEVLGEKPEILETMPVRFHCPCSKERFETAILGLGKKEIQDMIEEDGQAEAVCHFCNEKYLFTKEELEGLRDQTTR | not failed
MNHRDKQIDSGSGSGENRRTYDCDICKRGFTNPQALGGHNNIHRRERERYPSSSSSSHSFPFSLPLPSQSPSSSTNFTNPPPYFPTIESYLHQGSQPPINPSHNTQYFGSSSSSRGGGRFAQGASHDLNLSLGLGSMNEDDDTHRSPPETGGSQPQDGDLDLDLRLGGHRHH | failed
MEGKTLIVSVLIMSLFMAQNQVDANICCPSIQARTFYNACLFAVGSPSSCIRNSSCLDISESTCPRGYTNDILENTGDAVTEYCKLGCVSSVCGALTILQNSDASEIVNGEVEKCTMACSTVCTKGSMNAVENA | failed
